Results: paper PMC8329185

How the values were obtained:
[1] = target: GFP-CPSF6; experiment: bead halo assay
[2] = target: GFP-NELF; experiment: bead halo assay
[3] = target: GFP-RPS6KA3; experiment: bead halo assay
[4] = target: GFP-SRSF7; experiment: bead halo assay
[5] = target: GFP-TRAP1; experiment: bead halo assay
[6] = target: EIF5A (Homo sapiens) (UniProt P63241); conditions: cited from earlier work
[7] = target: SNUPN (Homo sapiens) (UniProt O95149); conditions: cited from earlier work
SNUPN (Homo sapiens), sequence (O95149 whole entry): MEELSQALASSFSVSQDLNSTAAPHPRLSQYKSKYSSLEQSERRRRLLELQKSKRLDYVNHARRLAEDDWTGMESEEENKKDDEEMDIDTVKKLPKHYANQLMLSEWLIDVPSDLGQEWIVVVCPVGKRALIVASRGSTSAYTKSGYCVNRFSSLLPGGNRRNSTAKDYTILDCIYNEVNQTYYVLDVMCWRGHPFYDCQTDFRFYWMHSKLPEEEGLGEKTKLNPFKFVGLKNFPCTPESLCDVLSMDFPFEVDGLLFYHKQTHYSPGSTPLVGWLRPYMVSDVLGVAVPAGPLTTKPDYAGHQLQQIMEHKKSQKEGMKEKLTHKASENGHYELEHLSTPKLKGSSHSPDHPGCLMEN

CRM1, sequence (O14980 whole entry): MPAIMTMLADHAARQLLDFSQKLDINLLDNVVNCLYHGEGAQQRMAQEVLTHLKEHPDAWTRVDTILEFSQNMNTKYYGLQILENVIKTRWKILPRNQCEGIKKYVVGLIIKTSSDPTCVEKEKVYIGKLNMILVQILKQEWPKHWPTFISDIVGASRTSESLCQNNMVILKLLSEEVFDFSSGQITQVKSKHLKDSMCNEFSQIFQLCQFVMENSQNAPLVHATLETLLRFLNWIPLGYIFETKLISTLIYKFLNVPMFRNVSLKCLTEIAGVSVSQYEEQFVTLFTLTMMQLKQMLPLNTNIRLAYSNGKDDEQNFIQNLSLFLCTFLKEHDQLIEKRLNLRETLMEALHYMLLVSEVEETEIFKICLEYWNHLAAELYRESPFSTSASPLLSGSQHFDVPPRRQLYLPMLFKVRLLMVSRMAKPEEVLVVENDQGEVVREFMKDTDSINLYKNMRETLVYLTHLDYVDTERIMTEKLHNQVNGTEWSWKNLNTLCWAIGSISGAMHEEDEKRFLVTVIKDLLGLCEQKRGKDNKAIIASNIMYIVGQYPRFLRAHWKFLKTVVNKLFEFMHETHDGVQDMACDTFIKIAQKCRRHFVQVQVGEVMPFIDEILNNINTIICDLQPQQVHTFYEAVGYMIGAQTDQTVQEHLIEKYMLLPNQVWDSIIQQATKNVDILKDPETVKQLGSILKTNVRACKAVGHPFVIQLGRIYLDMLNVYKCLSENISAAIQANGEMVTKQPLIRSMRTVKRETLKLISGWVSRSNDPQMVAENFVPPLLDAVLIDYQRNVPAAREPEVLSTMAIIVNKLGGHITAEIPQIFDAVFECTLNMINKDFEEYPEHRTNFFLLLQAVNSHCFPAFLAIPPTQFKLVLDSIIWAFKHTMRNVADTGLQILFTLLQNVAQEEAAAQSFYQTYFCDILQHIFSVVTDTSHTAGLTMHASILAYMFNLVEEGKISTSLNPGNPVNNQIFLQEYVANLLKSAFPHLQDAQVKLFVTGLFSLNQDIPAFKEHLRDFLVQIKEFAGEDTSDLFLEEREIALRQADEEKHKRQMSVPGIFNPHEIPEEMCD
Xpo4, sequence (Q9C0E2 whole entry): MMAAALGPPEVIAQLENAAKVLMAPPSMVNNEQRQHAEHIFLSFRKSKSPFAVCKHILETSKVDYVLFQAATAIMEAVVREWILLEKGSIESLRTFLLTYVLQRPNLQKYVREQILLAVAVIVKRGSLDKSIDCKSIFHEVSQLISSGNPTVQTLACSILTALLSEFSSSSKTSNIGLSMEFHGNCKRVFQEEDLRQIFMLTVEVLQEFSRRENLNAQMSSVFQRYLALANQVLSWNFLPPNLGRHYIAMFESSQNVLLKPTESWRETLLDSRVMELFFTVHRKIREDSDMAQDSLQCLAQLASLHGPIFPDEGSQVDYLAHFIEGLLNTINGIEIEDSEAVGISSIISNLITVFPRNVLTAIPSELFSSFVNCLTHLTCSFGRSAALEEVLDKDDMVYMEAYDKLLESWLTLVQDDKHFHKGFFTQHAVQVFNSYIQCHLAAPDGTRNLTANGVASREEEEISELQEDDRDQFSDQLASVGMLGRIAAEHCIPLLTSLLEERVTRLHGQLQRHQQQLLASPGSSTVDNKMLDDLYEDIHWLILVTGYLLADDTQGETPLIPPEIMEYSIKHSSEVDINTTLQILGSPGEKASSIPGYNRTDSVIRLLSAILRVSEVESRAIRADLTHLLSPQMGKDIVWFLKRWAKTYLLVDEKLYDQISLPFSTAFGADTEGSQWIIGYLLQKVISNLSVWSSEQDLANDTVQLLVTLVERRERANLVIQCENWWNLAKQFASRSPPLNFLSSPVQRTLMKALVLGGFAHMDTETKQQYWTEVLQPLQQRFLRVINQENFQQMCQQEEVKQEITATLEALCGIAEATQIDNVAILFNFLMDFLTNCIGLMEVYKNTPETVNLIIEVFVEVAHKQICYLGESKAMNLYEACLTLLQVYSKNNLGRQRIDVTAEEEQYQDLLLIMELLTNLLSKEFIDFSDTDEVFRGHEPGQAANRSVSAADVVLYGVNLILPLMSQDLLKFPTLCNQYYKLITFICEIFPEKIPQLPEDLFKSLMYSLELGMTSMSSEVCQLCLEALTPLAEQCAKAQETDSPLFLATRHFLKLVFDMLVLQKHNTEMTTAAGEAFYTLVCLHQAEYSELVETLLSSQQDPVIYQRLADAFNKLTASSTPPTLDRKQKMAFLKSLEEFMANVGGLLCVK
EIF5A (Homo sapiens), sequence (P63241 2-154): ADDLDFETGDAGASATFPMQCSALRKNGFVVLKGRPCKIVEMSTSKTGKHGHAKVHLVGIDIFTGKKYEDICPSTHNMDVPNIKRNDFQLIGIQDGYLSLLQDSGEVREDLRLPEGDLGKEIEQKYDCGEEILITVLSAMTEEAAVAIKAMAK

With “GST-mCherry-TrnSR (WT) (from UniProt Q9Y5L0) E398R” the response [1] was 0.15 GFP/mCherry, the response [2] was 1.14 GFP/mCherry and the response [3] was 0.09 GFP/mCherry. It also gave a response [4] of 0.94 GFP/mCherry and a response [5] of 1.11 GFP/mCherry.

With “GST-mCherry-TrnSR (WT) (from UniProt Q9Y5L0) R671E” the response [1] was 0.15 GFP/mCherry, the response [2] was 0.5 GFP/mCherry and the response [3] was 0.37 GFP/mCherry. The response [4] was 0.26 GFP/mCherry and the response [5] was 1.16 GFP/mCherry.

For Xpo4 (from UniProt Q9C0E2), the Kd [6] is given as 2 nM.

In the case of “GST-mCherry-TrnSR (WT) (from UniProt Q9Y5L0) D409R”, the response [1] is reported as 0.46 GFP/mCherry, the response [2] is reported as 2.89 GFP/mCherry and the response [3] is reported as 0.13 GFP/mCherry. The response [4] was 0.67 GFP/mCherry and the response [5] was 1.35 GFP/mCherry.

In the case of CRM1 (from UniProt O14980), the Kd [7] is listed as 10 nM.
